Legend:
[1] = molecular target: MBP-CHMP4B_(ΔC-Alix) (human); experiment: SPR
[2] = molecular target: MBP-CHMP4B_(ΔC-Alix) (human); experiment: SPR; remark: listed apart in the source
[3] = molecular target: CHMP2B-His6 (full length) (human, UniProt Q9UQN3 1-213); experiment: SPR
[4] = molecular target: T1, CHMP3 full length (residues 1-222) (human, UniProt Q9Y3E7 1-222); experiment: SPR
T1 sequence (looked up): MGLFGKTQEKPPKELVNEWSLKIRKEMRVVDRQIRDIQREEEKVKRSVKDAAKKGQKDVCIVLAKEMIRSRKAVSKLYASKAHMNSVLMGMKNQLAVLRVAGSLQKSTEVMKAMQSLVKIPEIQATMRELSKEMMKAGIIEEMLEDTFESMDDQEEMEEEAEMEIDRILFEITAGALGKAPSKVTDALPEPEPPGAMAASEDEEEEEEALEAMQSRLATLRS

[5] = molecular target: T1, CHMP3 full length (residues 1-222); experiment: cryo-EM structure

CHMP2B-His6 (full length) (human, UniProt Q9UQN3 1-213), sequence (Q9UQN3 whole entry, the tested form may be a part): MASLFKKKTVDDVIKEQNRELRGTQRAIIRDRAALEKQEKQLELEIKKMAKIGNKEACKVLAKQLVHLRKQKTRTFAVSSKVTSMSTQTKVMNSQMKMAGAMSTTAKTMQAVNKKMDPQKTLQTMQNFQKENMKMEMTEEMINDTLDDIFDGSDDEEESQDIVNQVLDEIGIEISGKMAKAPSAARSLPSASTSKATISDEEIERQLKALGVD

CHMP2B-His6 (full length) (from UniProt Q9UQN3 1-213) (natural protein)
Kd [1]: 560 nM

B1: CHMP3 full length (residues 1-222) (natural protein)
chain: T1 sequence (looked up)
KD1 (at low concentrations) [2]: 0.15 µM

B2: CHMP3ΔC (residues 9-183) (domain or fragment, human, UniProt Q9Y3E7 9-183, looked up)
chain: EKPPKELVNEWSLKIRKEMRVVDRQIRDIQREEEKVKRSVKDAAKKGQKDVCIVLAKEMIRSRKAVSKLYASKAHMNSVLMGMKNQLAVLRVAGSLQKSTEVMKAMQSLVKIPEIQATMRELSKEMMKAGIIEEMLEDTFESMDDQEEMEEEAEMEIDRILFEITAGALGKAPSK
Kd [3]: 1400 nM

B3: MBP-CHMP2AΔC (residues 9-161) (domain or fragment, human, UniProt O43633 9-161, looked up)
chain: KTPEELLRQNQRALNRAMRELDRERQKLETQEKKIIADIKKMAKQGQMDAVRIMAKDLVRTRRYVRKFVLMRANIQAVSLKIQTLKSNNSMAQAMKGVTKAMGTMNRQLKLPQIQKIMMEFERQAEIMDMKEEMMNDAIDDAMGDEEDEEESD
modifications: biotin on lysines (biotin sulfo-LC-NHS, molar ratio 1:5) where it was immobilised; not biotinylated as analyte
Kd [4]: 3200 nM

B4: CHMP2AΔC (residues 9-161), MBP removed (domain or fragment, human, UniProt O43633 9-161, looked up)
chain: B3 chain
binding result [5]: binds
